Data on 1 sequence can be found in article PMC7156744, “CdbA is a DNA-binding protein and c-di-GMP receptor important for nucleoid organization and segregation in Myxococcus xanthus” (Nature Communications, 2020).

Numbering of substitutions follows the chain as printed.

For data set [1], the target named is T1, CdbA K8A/S10A-His6 K59A;S61A (Myxococcus xanthus DK1622) (UniProt Q1D489).
T1 sequence: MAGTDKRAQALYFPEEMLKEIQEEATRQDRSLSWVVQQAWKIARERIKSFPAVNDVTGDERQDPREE
Briefly: EMSA. Particulars: 10x buffer: 380 mM HEPES, 380 mM NaCl, 50 mM MgCl2, 50% glycerol, 10 mM DTT, 15 ng/ul poly(dI-dC), 50 ng probe, 30 C 30 min, 10% PAGE 1x TBE 4 C, pH not …. (Mobility shift assays separate free from complexed probe on a gel.)

Data set [2] has as its target T2, CdbA R27A/R30A-His6 R78A;R81A (Myxococcus xanthus DK1622) (UniProt Q1D489).
T2 sequence: T1 sequence with A8K, A10S, R27A, R30A
Briefly: EMSA. The following applies: 10x buffer: 380 mM HEPES, 380 mM NaCl, 50 mM MgCl2, 50% glycerol, 10 mM DTT, 15 ng/ul poly(dI-dC), 50 ng probe, 30 C 30 min, 10% PAGE 1x TBE 4 C, pH not ….

Regarding “ACTTGGGTCTCCGGGGCGGATTCGGGGTGACGACCTGAACACACCTGGGCCGTTATCCGACAGACTCCCAAGTGGGTCAACGGTTTCCAAGGACTCATTCCGAGGTCGCACGGTCCGTCCCCGTGCTCGTCCAGTTGCACGTAAGCTGTGCAACCATGCGCGAAAAAGGAAACGCCCCGGACTCCACGAGGAAGTCCGGGGCGCTTCGGAAAGAGGGACCGCCTAGAGAAATCTCCAGGCGGGCCCGTGG (double strand) [cdbAB promoter]”, the binding result in data set [1] and in data set [2] was “no binding” each time.
